Measured values from patent US20070071744A1 (published 2007).
Ends that are not written are not given here.

Assays:
Assay in all cases: PepSpot peptide array
peptide 94 = target: T1, peptide 94 (human)
T1 construct: also called DPYLWSAPSDPLE
T1 peptide: Ac-DPYLWSAPSDPLE
Description: (§1) The peptides were synthesized on a cellulose membrane in a stepwise manner resulting in a defined arrangement (peptide array) and are covalently bound to the cellulose membrane. Binding assays were performed directly on the peptide array. In general an antigen peptide array is incubated with blocking buffer for several hours to reduce non-specific binding of proteins or antibodies. It follows the incubation with a primary (antigen peptide-binding) antibody in blocking buffer and an incubation with a horseradish peroxidase (HRP)-labelled secondary antibody, which binds selectively the primary antibody. Alternatively a HRP-labelled primary antibody in blocking buffer can be used.
(§2) A short T(Tween)-TBS-buffer washing directly after the incubation of the antigen peptide array with the secondary protein or antibody or the HRP-labelled primary antibody followed by the first chemiluminescence experiment is made to get an first overview which antigen peptides do bind the primary antibody. Several buffer washing steps follow (T-TBS- and TBS-buffer) to reduce false positive binding (unspecific antibody binding to the cellulose membrane itself). After these washing steps the final chemiluminescence analysis is performed. The data were analysed with an imaging system showing the signal intensity (Light units, LU) as single measurements for each peptide. In order to evaluate non-specific binding of secondary antibodies, incubations using the secondary antibody have to be performed in the absence of the primary antibody as control incubation.

peptide 54 = target: T2, peptide 54 (human)
T2 peptide: Ac-ATGVFAKPSLSAQ
Description: as §1, §2

peptide 81 = target: T3, peptide 81 (human)
T3 peptide: Ac-YRASFPIITVTAA
Description: as §1, §2

peptide 25 = target: T4, peptide 25 (human)
T4 peptide: Ac-QGPPGVDLYRLEK
Description: as §1, §2

peptide 38 = target: T5, peptide 38 (human)
T5 peptide: Ac-IPAMKRSLAGRYR
Description: as §1, §2

peptide 65 = target: T6, peptide 65 (human)
T6 peptide: Ac-DVTLQCQTRYGFD
Description: as §1, §2

peptide 99 = target: T7, peptide 99 (human)
T7 peptide: Ac-PLELVVTGTSVTP
Description: as §1, §2

peptide 85 = target: T8, peptide 85 (human)
T8 peptide: Ac-TVTAAHSGTYRCY
Description: as §1, §2

peptide 40 = target: T9, peptide 40 (human)
T9 peptide: Ac-KRSLAGRYRCSYQ
Description: as §1, §2

peptide 83 = target: T10, peptide 83 (human)
T10 peptide: Ac-FPIITVTAAHSGT
Description: as §1, §2

peptide 56 = target: T11, peptide 56 (human)
T11 peptide: Ac-FAKPSLSAQPGPA
Description: as §1, §2

peptide 16 = target: T12, peptide 16 (human)
T12 peptide: Ac-QALPSSLVPLEKP
Description: as §1, §2

peptide 98 = target: T13, peptide 98 (human)
T13 peptide: Ac-SDPLELVVTGTSV
Description: as §1, §2

peptide 57 = target: T14, peptide 57 (human)
T14 peptide: Ac-KPSLSAQPGPAVS
Description: as §1, §2

peptide 28 = target: T15, peptide 28 (human)
T15 peptide: Ac-DLYRLEKLSSSRY
Description: as §1, §2

peptide 50 = target: T16, peptide 50 (human)
T16 peptide: Ac-PSDQLELVATGVF
Description: as §1, §2

peptide 60 = target: T17, peptide 60 (human)
T17 peptide: Ac-QPGPAVSSGGDVT
Description: as §1, §2

peptide 116 = target: T18, peptide 116 (human)
T18 peptide: Ac-TVSFTNKVFTTET
Description: as §1, §2

peptide 27 = target: T19, peptide 27 (human)
T19 peptide: Ac-GVDLYRLEKLSSS
Description: as §1, §2

peptide 84 = target: T20, peptide 84 (human)
T20 peptide: Ac-IITVTAAHSGTYR
Description: as §1, §2

peptide 121 = target: T21, peptide 121 (human)
T21 peptide: Ac-TETSRSITTSPKE
Description: as §1, §2

peptide 12 = target: T22, peptide 12 (human)
T22 peptide: Ac-GPLPKPSLQALPS
Description: as §1, §2

peptide 62 = target: T23, peptide 62 (human)
T23 peptide: Ac-AVSSGGDVTLQCQ
Description: as §1, §2

peptide 26 = target: T24, peptide 26 (human)
T24 peptide: Ac-PPGVDLYRLEKLS
Description: as §1, §2

peptide 47 = target: T25, peptide 47 (human)
T25 peptide: Ac-GSLWSLPSDQLEL
Description: as §1, §2

peptide 114 = target: T26, peptide 114 (human)
T26 peptide: Ac-TAELTVSFTNKVF
Description: as §1, §2

peptide 106 = target: T27, peptide 106 (human)
T27 peptide: Ac-RLPTEPPSSVAEF
Description: as §1, §2

peptide 75 = target: T28, peptide 75 (human)
T28 peptide: Ac-GDPAPYKNPERWY
Description: as §1, §2

peptide 20 = target: T29, peptide 20 (human)
T29 peptide: Ac-PLEKPVTLRCQGP
Description: as §1, §2

peptide 88 = target: T30, peptide 88 (human)
T30 peptide: Ac-SGTYRCYSFSSRD
Description: as §1, §2

peptide 102 = target: T31, peptide 102 (human)
T31 peptide: Ac-TGTSVTPSRLPTE
Description: as §1, §2

peptide 51 = target: T32, peptide 51 (human)
T32 peptide: Ac-DQLELVATGVFAK
Description: as §1, §2

peptide 123 = target: T33, peptide 123 (human)
T33 peptide: Ac-RSITTSPKESDSP
Description: as §1, §2

peptide 125 = target: T34, peptide 125 (human)
T34 peptide: Ac-TSPKESDSPAGPA
Description: as §1, §2

peptide 33 = target: T35, peptide 33 (human)
T35 peptide: Ac-SRYQDQAVLFIPA
Description: as §1, §2

peptide 70 = target: T36, peptide 70 (human)
T36 peptide: Ac-GFDQFALYKEGDP
Description: as §1, §2

peptide 105 = target: T37, peptide 105 (human)
T37 peptide: Ac-PSRLPTEPPSSVA
Description: as §1, §2

peptide 61 = target: T38, peptide 61 (human)
T38 peptide: Ac-GPAVSSGGDVTLQ
Description: as §1, §2

peptide 78 = target: T39, peptide 78 (human)
T39 peptide: Ac-KNPERWYRASFPI
Description: as §1, §2

peptide 34 = target: T40, peptide 34 (human)
T40 peptide: Ac-YQDQAVLFIPAMK
Description: as §1, §2

peptide 79 = target: T41, peptide 79 (human)
T41 peptide: Ac-PERWYRASFPIIT
Description: as §1, §2

B1: monoclonal antibody hGP 5C4 (antibody, V domains shown)
VH: EVKLQESGGGLVQPGRSLKLSCTASGFTFSDYFMSWVRQAPTRGLEWVASISSGGASAYWRDSVKGRFTISRDNAKSALYLQMDSLRSEDTATYFCARGELDFDYWGQGVMVAVSS
VL: ADPNSTLLSASVGDRVTLNCTASQNVYKNLAWYQQKLGEAPRLLLYSANSQTGIPSRFSGSGSGPDFTLTISSLQPEDVASYFCQQYYSGNTFGAGTKLELKR
notes: Rat hybridoma antibody (Lou/C rats), heavy chain gamma 2a, light chain kappa; also called ab 5C4; anti-GPVI mAb 5C4
Q: B1 was tested. Which “LU (Light Units)” value (peptide 94) did it give?
A: 63 LU

Q: And the “LU (Light Units)” value (peptide 54)?
A: 1210 LU

Q: What about the “signal to noise ratio” value (peptide 54) of the same binder?
A: ~4 ratio

Q: And the “LU (Light Units)” value (peptide 81)?
A: 141 LU

Q: What about the “LU (Light Units)” value (peptide 25) of the same binder?
A: 56 LU

Q: And the “LU (Light Units)” value (peptide 38)?
A: 1030 LU

Q: What about the “LU (Light Units)” value (peptide 65) of the same binder?
A: 26 LU

Q: And the “LU (Light Units)” value (peptide 99)?
A: 202 LU

Q: What about the “LU (Light Units)” value (peptide 85) of the same binder?
A: 14 LU

Q: What about the “LU (Light Units)” value (peptide 40) of the same binder?
A: 139 LU

Q: And the “LU (Light Units)” value (peptide 83)?
A: 75 LU

Q: What about the “LU (Light Units)” value (peptide 56) of the same binder?
A: 759 LU

Q: What about the “LU (Light Units)” value (peptide 16) of the same binder?
A: 80 LU

Q: And the “LU (Light Units)” value (peptide 98)?
A: 141 LU

Q: What about the “LU (Light Units)” value (peptide 57) of the same binder?
A: 128 LU

Q: And the “LU (Light Units)” value (peptide 28)?
A: 179 LU

Q: And the “LU (Light Units)” value (peptide 50)?
A: 38 LU

Q: What about the “LU (Light Units)” value (peptide 60) of the same binder?
A: 88 LU

Q: And the “LU (Light Units)” value (peptide 116)?
A: 224 LU

Q: What about the “LU (Light Units)” value (peptide 27) of the same binder?
A: 100 LU

Q: What about the “LU (Light Units)” value (peptide 84) of the same binder?
A: 87 LU

Q: And the “LU (Light Units)” value (peptide 121)?
A: 186 LU

Q: And the “LU (Light Units)” value (peptide 12)?
A: 2980 LU

Q: And the “LU (Light Units)” value (peptide 62)?
A: 49 LU

Q: And the “LU (Light Units)” value (peptide 26)?
A: 101 LU

Q: And the “LU (Light Units)” value (peptide 47)?
A: 79 LU

Q: And the “LU (Light Units)” value (peptide 114)?
A: 226 LU

Q: What about the “LU (Light Units)” value (peptide 106) of the same binder?
A: 2 LU

Q: And the “LU (Light Units)” value (peptide 75)?
A: 95 LU

Q: And the “LU (Light Units)” value (peptide 20)?
A: 175 LU

Q: What about the “LU (Light Units)” value (peptide 88) of the same binder?
A: 64 LU

Q: What about the “LU (Light Units)” value (peptide 102) of the same binder?
A: 160 LU

Q: And the “LU (Light Units)” value (peptide 51)?
A: 73 LU

Q: And the “LU (Light Units)” value (peptide 123)?
A: 91 LU

Q: What about the “LU (Light Units)” value (peptide 125) of the same binder?
A: 25 LU

Q: What about the “LU (Light Units)” value (peptide 33) of the same binder?
A: 259 LU

Q: What about the “LU (Light Units)” value (peptide 70) of the same binder?
A: 3 LU

Q: And the “LU (Light Units)” value (peptide 105)?
A: 33 LU

Q: And the “LU (Light Units)” value (peptide 61)?
A: 71 LU

Q: And the “LU (Light Units)” value (peptide 78)?
A: 51 LU

Q: What about the “LU (Light Units)” value (peptide 34) of the same binder?
A: 125 LU

Q: What about the “LU (Light Units)” value (peptide 79) of the same binder?
A: 119 LU
